28 sequences from the domain aggregation screens of Martell et al. (2025) can be followed below.

This data set can be described thus: soluble fraction after stress (log2 fold change); higher = more stays soluble; pooled small domains, quantitative proteomics. The note with it: stress: pH 4. The procedure, abridged:
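With high-throughput quantitative proteomics, pooled custom libraries of small protein domains were measured after pH 4 stress. Each domain's soluble amount after the stress gives a fold change taken as aggregation propensity. Higher log2 values mean more of the domain stayed soluble.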
On to “HMNELIGVEQLQDLREAIADHGFAEQRVLNWLYQATKGQVSRLEQLPLPMLTTLHKKLGQWADAEAAASSA”, for which the “soluble fraction (log2)” value was -0.499.

“HMNELVEATITTQTGRLDKVLTTIFPQYSRSQIQQLLEQGNILVNETLQKGKYKVKAGDKISLTEPAIKE”: the “soluble fraction (log2)” value was at least 0.43.

For the sequence “HMNEMSDTITRLLDAAETGIRLRGYHAVSFRDLAEELGIKSSSVHYYFRQKEDLGLAVVERY”, the “soluble fraction (log2)” value was -0.185.

In the case of “HMNENDPRVIKTRRLLLDSFVVLVRKKDFTSISVKDITDSAQVNRATFYAHFQDKYDILEYMVID”, the “soluble fraction (log2)” value was -0.198.

In the case of “HMNENNFIVAMRERLAQFIETSGTSQSRIAKELGVSKSTVSLFLGGTYGGNNQELARNLEQLLSMGAARR”, the “soluble fraction (log2)” value is 0.212.

On to “HMNEPMITEVKRINYGSIKEIAKNLDVFKGKNGTVIIDERTNTLILTDLSENIEKMLWSIEITD”, for which the “soluble fraction (log2)” value was -0.855.

In the case of “HMNERTKIPLRKIEIGQAVYVDTLEKVGTVIDIQGKQFKVDLAGLPITVAARNLFYPLPQEAKP”, the “soluble fraction (log2)” value is -0.0254.

Consider “HMNESADMPDVVNMSLEAAKSQLEGMGLKVKVENVEDDSVEENHVIKTSPVSGEKVKLGTTVTLTVSKGR”, for which the “soluble fraction (log2)” value is -0.279.

As to “HMNESEALIARIENLPPIEDLTEKHAEEVKALMTVYSKLKMSDRILVTNYGVLKKDFDALVKKGFLTNED”, the “soluble fraction (log2)” value worked out at 0.0976.

In the case of “HMNETHANKVYNFLKKKKKPLSAYEILKELASEGISAPTTIYRALNKLVSNGLIHKIESLNAWTV”, the “soluble fraction (log2)” value is 0.185.

As for “HMNETLKQIRINALQYSEKDMATKLGLPLSEYKEIENDKPLNFTLLIRLSQAVGKTIDDLLNAQ”, the “soluble fraction (log2)” value is -0.128.

For “HMNEVETWSVQADGATGRIDKWLAEQNEWSRSQVQEWLKAGRVEVDGRVVKPNYKLSGTESIAVHIPEAV”, the “soluble fraction (log2)” value is -0.0787.

For “HMNEWVSVEERLPTDERPVLAFIGYADTMNGFITTSYYFRFDPDPHWLGEGLIPVGLKTLFWMPLPAP”, the “soluble fraction (log2)” value is -0.0414.

“HMNEYSLVPDIYGMTYDDALSSLRNVGLDGRLALASTNEDLANADTRVVWQSKEAGSIIDKGSNVMFVID”: the “soluble fraction (log2)” value was -1.27.

Turning to “HMNFAERIKELRKEKGITQIDLAEAVGLSKGTVAMWEVDKREANFDTLNKLSDYFQVSIDYLLGRSNDRS”, the “soluble fraction (log2)” value was -0.206.

Take “HMNFDVETGLPLDSRLVVSGLIQRDGINSLKRYEGMIVYVESEAKNYQLVGGISNTDWAELS”: the “soluble fraction (log2)” value is -0.426.

As to “HMNFGEVLQTKRKSMGLTQEDLADKLFVSSETISNWETNKTTPDIDNVIRISQLFDISLNNLLL”, the “soluble fraction (log2)” value is -0.89.

On to “HMNFIPGEKINLKIVQEGKEKNQGVGYLSDGTMVIVENGSQKLGQDVEVVVIKNIQSSAGKIVFGDISK”, for which the “soluble fraction (log2)” value was found to be 0.227.

“HMNFSRQREIIYEQVRNFPVHPTAEEVYRALKNDNPNLSLGTVYRNLNQLSEAGMLLKIPIADGSDRFDGR”: the “soluble fraction (log2)” value was -0.56.

Turning to “HMNFTETENRIYEEILKNVKQHKKKTVVQIAEKVDVAPSYVIKVAKKLGYSGLNEMWYSLSGIY”, the “soluble fraction (log2)” value is -0.0318.

Turning to “HMNFTMERLYTKELTSEDIDEIKKELNSMGYTEGVEFNIIKGDKTSFIMAERQLKAKMLSHLSDLGLPRGA”, the “soluble fraction (log2)” value was 0.0335.

Regarding “HMNGAAAEQARKQLMTALKASEFIAQDKLDEWLDALALPQEKRSAIIDAVDELDYEEAISELEN”, the “soluble fraction (log2)” value was -0.2.

“HMNGDWISARQEYYIRGLWDLASRAKDEASLQAMLQRIAGVTQIEWISKEKATKVILALRDIAKK”: the “soluble fraction (log2)” value was -0.154.

For the sequence “HMNGELSQRQWQILRLIAQGLSNEQMARQLFVAPSTIKTHINHLYAKLGVRTRAEAQAIARQKLMA”, the “soluble fraction (log2)” value is -0.0448.

Regarding “HMNGIFEYSDAKKVPSLVEIENAYRRARVNGAEKFAVIINGEYFGYNPQKRGIYKLNDGEYQIL”, the “soluble fraction (log2)” value worked out at 0.115.

For the sequence “HMNGKPDMTPIPAGSRNNDLHAWAYGRLLNHPDNAEAIRRDLFERGQTSGLKESELETIWQSIRRQLGGD”, the “soluble fraction (log2)” value amounted to 0.126.

Take “HMNGKTIEVPDITEKSIAEAQLILNQKKLRYNVVDSTRFDPAYLPFSVLTQEPEAGDEVKKNRTIYITLNP”: the “soluble fraction (log2)” value was -0.0716.

Turning to “HMNGLDSVLRNWARQTLASGGENLLGDLTDHVTRLIISEALIMTGGNRTRAAELLGLSRPTLLAKMDKLNL”, the “soluble fraction (log2)” value was -0.789.
